In the assay the target is mutant (M97S, F110S) EndoBAR (endophilin Bin–Amphiphysin–Rvs domain of mouse endophilinA1) (mouse). Nature of the assay: cross-linking.

As for “mutant (M97S, F110S) EndoBAR (endophilin Bin–Amphiphysin–Rvs domain of mouse endophilinA1) (domain or fragment)”, the stoichiometry N – broadly, a count of units in the complex or per binding partner – amounted to 2.

For the origin of these results see article PMC4927284.
